Measurements: the supplement of paper PMC9170038

Test system: MS2 coat protein
Test: apparent KD of MS2 coat protein; designed switch direction (-1 OFF switch, 1 ON switch): -1; higher = weaker reporter binding
Method in brief: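 The reported apparent KD is a per-design median over clusters, from curve fits of normalised cluster fluorescence. Protein titrations used SNAP-549-labelled MS2 coat protein, doubled from 0.7 or 1.5 nM to 3 µM, in Tris-HCl pH 7.5 buffer with KCl, MgCl2, BSA, DTT, tRNA and Tween-20, with no input, 200 uM small-molecule ligand, or an oligonucleotide input. The RNA switches were transcribed on Illumina chips by stalled E. coli RNA polymerase.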

[1] = Eterna round: R95, input ligand: microRNA oligo, concentration not stated
[2] = Eterna round: R95, input ligand: FMN 200 uM
[3] = Eterna round: R95, input ligand: none
[4] = input ligand: microRNA oligo, concentration not stated

Sequence | apparent KD of MS2 coat protein [1] [µM] | apparent KD of MS2 coat protein (input ligand: FMN 200 uM) [µM] | apparent KD of MS2 coat protein (input ligand: none) [µM] | further results
UUCCUGUCAGGAUAUGACUAGAUGCACGAAAGUGUGUUUAGUUAGAAGGGACAUGAGGAUCACCCAUGUAGUCC [Bring Us a Shrubbery-18] (puzzle: Exclusion 4) | 0.0209 | – | – | –
UCCAAACAUGAGGAUCACCCAUGUGAGGAUAUGAUACUAUGUACUUCGGUACAUAGUAUCAGAAGGCACAUCCA [Ex1-3: 10] (puzzle: Exclusion 1) | 0.0134 | – | – | –
AUGUGCACGCUGCGAUCCUACAUGAGGAUCACCCAUGUGGUCUGGUGGCGUGGGUCACCGGACUUGGCUCGUCUUGC [salish99_S_TOV1_R5_074] (Eterna round: R97, puzzle: Sensor, turn-off variant 1) | – | 0.0281 | 0.0276 | –
UAAUUGAUUAAUAGAUUAUACAUGAGGAUCACCCAUGUAGGUCCUACGUGCCAUUUAAGUAGCUCGUCUUAUUCCCA [Sensor-V1 #67] (Eterna round: R97, puzzle: Sensor, turn-off variant 1) | – | 0.0402 | 0.0456 | –
CCCGGGCGAGGAUAUACAUGAGGAUCACCCAUGUUGGGCUAGUUGGUGGCUCCUCGCGGUAGAAGGCGCACGCG [Edna] (puzzle: Exclusion 3) | 0.0645 | – | – | apparent KD of MS2 coat protein [2]: 0.123 µM; apparent KD of MS2 coat protein [3]: 0.0746 µM
CCGAGCAAGGUGAGGAUAUUAAGAGCUACAGAGCAUGAGAAGGCACAUGAGGAUCACCCAUGUUACUACAGGGA [Eternabot (L1) Solution 66] (Eterna round: R97, puzzle: Brourd's mod of Exclusion 4) | – | 0.0549 | 0.054 | –
CAGGGUAGAGGAUAUACGUAGGUACAGAUCUGUGUGUUCCUACAUGAGGAUCACCCAUGUAGAAGGCUAGCCUG [LRO-Excl2-08] (puzzle: Exclusion 2) | 0.0779 | – | – | –
GUUGUUUAUGUAGGAUAUGCCUGGCGUGCCUUUGCAGAAGGACAUGAGGAUCACCCAUGUAACAUGAGGCUCACCCAUGUCGCA [salish99_ExNG1_r04_109] (Eterna round: R96, puzzle: Exclusion NG 1) | – | 0.758 | 0.599 | apparent KD of MS2 coat protein [4]: 0.244 µM
UUUUGGCAUGUAGGAUAUGGGUCCGAUUAGGAUUUAGAAGGACAUGAGGAUCACCCAUGUGCCCUUAAUUGGUCUUUUUUUUUU [EXclNG1-LROPPY17] (Eterna round: R96, puzzle: Exclusion NG 1) | – | 0.0558 | 0.0444 | apparent KD of MS2 coat protein [4]: 0.0353 µM
UAUGGUUAAGUCAGGAUAUGCACGCAGAUUACAAAGCAGAAGGGACAUGAGGAUCACCCAUGUACACUCGUGUU [Ex4 #79] (Eterna round: R97, puzzle: Brourd's mod of Exclusion 4) | – | 0.0259 | 0.0361 | –
UAAUAUCUGUAGGAUAUCAGUGGAGCACACGUAUGAGAAGGGCAGACAUGAGGAUCACCCAUGUAUAGGGUCCG [BotMod 5 - Jieux - Exclusion 6] (Eterna round: R97, puzzle: Exclusion 6) | – | 0.0387 | 0.0293 | –
AAAAUACAUGAGGAUCACCCAUGUGAGGAUAUGAGCGUCAUUUAUAUAUAUUAGACGCUCAGAAGGCACAUAAA [JR_Ex1_Sub069] (Eterna round: R97, puzzle: Exclusion 1) | – | 0.214 | 0.0443 | –
CUCCUCAUGACGCCUAAACACAUGAGGAUCACCCAUGUACAGGCUUUUUGUCGUCUUAUAAUAAAACCGAGGAGGCG [Inletice] (puzzle: Sensor v3, turn-off variant 1) | 0.0659 | – | – | apparent KD of MS2 coat protein [2]: 0.0146 µM; apparent KD of MS2 coat protein [3]: 0.015 µM
UUCCUCGUUGUGAGGAUAUCGUCCGUGUUUUGUUACGAGAAGGCACAUGAGGAUCACCCAUGUUUUUUGUUUUU [JR_BMOE4_Sub075] (puzzle: Brourd's mod of Exclusion 4) | 0.04 | – | – | –
GGACCUCCUGAGGAUAUUGUAUCACCUGACUGAUAAGAAGGCAGAACAUGAGGAUCACCCAUGUGGGUACUCGG [Bingo-Bango-15] (Eterna round: R97, puzzle: Exclusion 6) | – | 0.147 | 0.19 | –
CAUAGUUACUCAGGAUAUCUUACAUGAGGAUCACCCAUGUAAUAAAUGAGAAUUUCGAAUGUAUAAGAGAAGGGAGAAAUCUAC [Ostracism 58 - Jieux - Exclusion NG 2] (Eterna round: R96, puzzle: Exclusion NG 2) | – | 0.0159 | 0.0176 | apparent KD of MS2 coat protein [4]: 0.014 µM
CUUUUGUGAGGAUAUUAGUAGUAAAUAUAUAAAAUUACUACUGAGAAGGCACAUGAGGAUCACCCAUGUUCCUC [salish99_ex4_r3_055] (puzzle: Exclusion 4) | 0.0362 | – | – | –
UUCUUGGCAGGAUAUGCUUUUUUAGACAUGAGGAUCACCCAUGUGAUUAUUUUUGGUUUUGCAGAAGGGCCUUAAU [JR_E5_Sub042] (puzzle: Exclusion 5) | 0.0599 | – | – | –

Sequence | apparent KD of MS2 coat protein [1] [µM] | apparent KD of MS2 coat protein (input ligand: FMN 200 uM) [µM] | apparent KD of MS2 coat protein (input ligand: none) [µM] | further results
CAGUACUGAGGAUAUACAUGAGGAUCACCCAUGUGUUGCAGCUAGGAAACUAGCAAAAGUAGAAGGCAGUACUG [salish99_ex3_r3_081] (puzzle: Exclusion 3) | 0.012 | – | – | –
CUUUGAUGAGGAUAUCGAGGUUAGUACAUGAGGAUCACCCAUGUUAUCCAGGUGUCGGAUCGAGAAGGUAUUGGAC [LRO-Ex5-18] (puzzle: Exclusion 5) | 0.0148 | – | – | –
GCCCGUGGGCAAGGAUAUCCUACGCUGUUCUGGUUCGUGUCUGUCACAUGAGGAUCACCCAUGUGGGAGAAGGUGCACCAGGGU [Design 52] (Eterna round: R96, puzzle: Exclusion NG 2) | – | 0.0135 | 0.0144 | apparent KD of MS2 coat protein [4]: 0.0107 µM
AACCUGAGGCUUUGCUUUAGGUGUACAUGAGGAUCACCCAUGUAGGAUAUGGUAGGCAAAGCUUACCAGAAGGACAUUGGCGUA [Mat - Exclusion NG 3 - Mod of JL - D40] (Eterna round: R96, puzzle: Exclusion NG 3) | – | 0.342 | 0.107 | apparent KD of MS2 coat protein [4]: 0.0947 µM
CUAACAUGCUGGUGAUCAUACAUGAGGAUCACCCAUGUAACAAGCUUUUUGCUCGUCUUAUAAGAUCACCAGCAUGU [Stov1/9-A4] (Eterna round: R97, puzzle: Sensor, turn-off variant 1) | – | 0.0162 | 0.0155 | –
AUAUAUAGUGUGAGGAUAUGCUGGUCCUUGGAUCAGCAGAAGGCACAUGAGGAUCACCCAUGUAGUUUAUUUUU [Mat - Exclusion 4 - JL Mod - D5] (puzzle: Brourd's mod of Exclusion 4) | 0.0262 | – | – | –
UAAUAGUAUGUUAGGAUAUGCUGGUCCUUGGAUCAGCAGAAGGAACAUGAGGAUCACCCAUGUAGAAUAUUUUA [Mod of JL 18 - Jieux - Brourd's mod of Exclusion 4] (Eterna round: R97, puzzle: Brourd's mod of Exclusion 4) | – | 0.0568 | 0.0181 | –
UCCUUACUGGUCAGGAUAUACAUUCGCUACUCCUUGUAGAAGGGACAUGAGGAUCACCCAUGUACGUUACAUCC [alecazam54b] (Eterna round: R97, puzzle: Brourd's mod of Exclusion 4) | – | 0.0229 | 0.0216 | –
GGAAUACAUGAGGAUCACCCAUGUAAGGAUAUGCUGAUUAACACGGAAUAAUUAUGCAGCAGAAGGUACAAAGG [Mat - Mod of my Eli Mod D48] (puzzle: Exclusion 1) | 0.113 | – | – | –
CUCUUGUUAGGAUAUCAAACCAGCGGCGGAACCGCUGGAAGUGAGAAGGGACAUGAGGAUCACCCAUGUAAGAA [Usrebiis] (puzzle: Exclusion 4) | 0.0393 | – | – | apparent KD of MS2 coat protein [2]: 0.161 µM; apparent KD of MS2 coat protein [3]: 0.0648 µM
CAUUAUGUUGAGGAUAUGCGCCGGCAAACUGACGCAGAAGGCGACACAUGAGGAUCACCCAUGUCAGUUCGCGA [salish99_ex6_r004_423] (Eterna round: R97, puzzle: Exclusion 6) | – | 0.0133 | 0.0149 | –
ACAUGAGGAUCACCCAUGUGACAAGAAUGGCUGAUAAAGAGACAGGAUAUAGGUGCAUAUCUAACCUAGAAGGGUCAUGACUGG [Deportation 74 - Jieux - Exclusion NG 3] (Eterna round: R96, puzzle: Exclusion NG 3) | – | 0.0385 | 0.0381 | apparent KD of MS2 coat protein [4]: 0.0283 µM
GAUCUACAUGAGGAUCACCCAUGUAAGGAUAUCUACAUUGAAGCUUCGGCUUCAAUGUAGAGAAGGUACAAUUA [E1/10-B1] (Eterna round: R97, puzzle: Exclusion 1) | – | 0.0407 | 0.0279 | –
ACCUCACAUGAGGAUCACCCAUGUCAGGAUAUCUUUUAAACCGCGAAUCGCGGCGCUGAGAGAAGGGACAUUAA [EX1 #20] (Eterna round: R97, puzzle: Exclusion 1) | – | 0.108 | 0.0394 | –
GGUUCCUGAGGAUAUACAUGAGGAUCACCCAUGUCUAUAUCAGCAGACGAUGACACAAGUAGAAGGUAGAGGGC [Eternabot (L2) Solution 48] (Eterna round: R97, puzzle: Exclusion 3) | – | 0.015 | 0.0104 | –
UAGUUGCUCAGGGAGUGUGACAUGAGGAUCACCCAUGUGGUGGUAGGGAACAAGCUUUUUGCACGUACUUAUGAGUU [JR_SV3TOV1_Sub008] (puzzle: Sensor v3, turn-off variant 1) | 0.0425 | – | – | apparent KD of MS2 coat protein [2]: 0.15 µM; apparent KD of MS2 coat protein [3]: 0.184 µM
GCAGCAAAUUCCACUAAAAUCACAUGAGGAUCACCCAUGUCUCAGGAUAUGGUCUGGAUUACAGGCCAGAAGGGAGAAAGCUGC [Eli exng3 - 057] (Eterna round: R96, puzzle: Exclusion NG 3) | – | 0.0258 | 0.0276 | apparent KD of MS2 coat protein [4]: 0.0236 µM
